T1: 메티오닐 티알엔에이 합성효소 (methionyl-tRNA synthetase, MRS) (human, UniProt P56192 1-900)
T1 construct: Full-length protein; In the cross-reactivity ELISA two preparations were coated (His-MRS, MRS full) and the result is told only for 'MRS'; In the western blots and cell staining it is the endogenous MRS of H460, PANC-1 and SCK cells; In SPR it was on the chip as MRS+AIMP3 co-purified protein; also called His-MRS; MRS full
T1 sequence: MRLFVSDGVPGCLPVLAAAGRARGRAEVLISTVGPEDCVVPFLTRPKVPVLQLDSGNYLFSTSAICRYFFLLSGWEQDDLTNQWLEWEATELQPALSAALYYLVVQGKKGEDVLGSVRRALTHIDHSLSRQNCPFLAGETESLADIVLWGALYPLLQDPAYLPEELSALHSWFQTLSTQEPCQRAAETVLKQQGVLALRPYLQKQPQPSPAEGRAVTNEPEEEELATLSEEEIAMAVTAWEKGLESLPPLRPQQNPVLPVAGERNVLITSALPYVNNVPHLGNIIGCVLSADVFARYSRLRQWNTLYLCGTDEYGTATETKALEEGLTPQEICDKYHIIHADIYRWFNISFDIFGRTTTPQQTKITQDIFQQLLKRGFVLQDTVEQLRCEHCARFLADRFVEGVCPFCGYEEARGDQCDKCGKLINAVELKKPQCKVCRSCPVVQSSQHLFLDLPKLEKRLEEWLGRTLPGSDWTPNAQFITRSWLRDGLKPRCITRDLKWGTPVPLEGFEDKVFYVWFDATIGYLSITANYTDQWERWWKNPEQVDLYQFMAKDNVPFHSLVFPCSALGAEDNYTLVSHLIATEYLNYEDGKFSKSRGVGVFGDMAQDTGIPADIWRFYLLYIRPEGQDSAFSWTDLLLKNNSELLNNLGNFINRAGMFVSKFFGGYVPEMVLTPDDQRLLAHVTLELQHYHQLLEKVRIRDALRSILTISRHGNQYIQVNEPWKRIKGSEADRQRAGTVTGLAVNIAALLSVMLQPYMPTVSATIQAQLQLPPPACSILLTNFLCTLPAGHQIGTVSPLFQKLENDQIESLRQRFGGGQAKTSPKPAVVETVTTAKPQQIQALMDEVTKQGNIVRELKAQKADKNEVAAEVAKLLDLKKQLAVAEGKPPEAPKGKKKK

T2: His-AIMP1 (UniProt Q12904 1-312, limits assumed)
T2 construct: not shown: His tag
T2 sequence (looked up): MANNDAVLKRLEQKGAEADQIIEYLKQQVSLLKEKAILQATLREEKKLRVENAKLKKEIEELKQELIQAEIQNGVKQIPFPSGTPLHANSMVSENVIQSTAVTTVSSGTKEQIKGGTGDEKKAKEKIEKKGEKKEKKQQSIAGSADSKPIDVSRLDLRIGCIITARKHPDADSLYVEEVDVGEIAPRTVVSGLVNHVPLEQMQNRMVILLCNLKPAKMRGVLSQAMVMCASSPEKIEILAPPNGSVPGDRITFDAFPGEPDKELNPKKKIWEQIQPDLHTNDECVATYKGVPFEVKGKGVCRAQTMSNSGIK

T3: 34S-AIMP2 (UniProt Q13155 1-320)
T3 sequence (looked up): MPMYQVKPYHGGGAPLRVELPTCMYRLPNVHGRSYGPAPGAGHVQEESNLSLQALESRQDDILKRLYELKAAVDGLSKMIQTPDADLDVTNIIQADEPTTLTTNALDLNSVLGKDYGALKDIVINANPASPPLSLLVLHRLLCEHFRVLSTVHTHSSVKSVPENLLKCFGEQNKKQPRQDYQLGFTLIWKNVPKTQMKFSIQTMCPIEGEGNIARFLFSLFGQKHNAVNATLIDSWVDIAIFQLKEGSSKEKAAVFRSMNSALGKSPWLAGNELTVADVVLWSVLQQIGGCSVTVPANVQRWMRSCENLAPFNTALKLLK

T4: His-GRS (UniProt P41250 55-739)
T4 construct: not shown: His tag
T4 sequence (looked up): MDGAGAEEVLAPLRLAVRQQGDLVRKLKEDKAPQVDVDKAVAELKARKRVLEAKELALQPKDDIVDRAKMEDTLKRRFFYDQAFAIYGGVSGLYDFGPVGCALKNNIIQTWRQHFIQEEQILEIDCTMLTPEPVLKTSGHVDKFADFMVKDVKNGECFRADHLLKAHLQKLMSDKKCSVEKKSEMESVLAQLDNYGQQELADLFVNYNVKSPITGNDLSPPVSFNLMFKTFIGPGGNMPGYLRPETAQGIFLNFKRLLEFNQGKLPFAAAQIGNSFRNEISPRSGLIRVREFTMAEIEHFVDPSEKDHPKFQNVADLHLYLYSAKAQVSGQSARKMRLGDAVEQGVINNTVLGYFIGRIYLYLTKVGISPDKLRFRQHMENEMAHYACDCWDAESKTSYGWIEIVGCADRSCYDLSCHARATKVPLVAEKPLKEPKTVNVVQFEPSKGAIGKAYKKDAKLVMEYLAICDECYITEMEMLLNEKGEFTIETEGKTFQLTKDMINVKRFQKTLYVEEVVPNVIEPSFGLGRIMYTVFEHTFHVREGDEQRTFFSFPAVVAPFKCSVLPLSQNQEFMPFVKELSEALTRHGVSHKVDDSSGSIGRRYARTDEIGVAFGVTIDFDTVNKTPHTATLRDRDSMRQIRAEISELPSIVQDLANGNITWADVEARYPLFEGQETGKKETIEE

T5: His-CRS (UniProt P49589 1-748)
T5 construct: not shown: His tag
T5 sequence (looked up): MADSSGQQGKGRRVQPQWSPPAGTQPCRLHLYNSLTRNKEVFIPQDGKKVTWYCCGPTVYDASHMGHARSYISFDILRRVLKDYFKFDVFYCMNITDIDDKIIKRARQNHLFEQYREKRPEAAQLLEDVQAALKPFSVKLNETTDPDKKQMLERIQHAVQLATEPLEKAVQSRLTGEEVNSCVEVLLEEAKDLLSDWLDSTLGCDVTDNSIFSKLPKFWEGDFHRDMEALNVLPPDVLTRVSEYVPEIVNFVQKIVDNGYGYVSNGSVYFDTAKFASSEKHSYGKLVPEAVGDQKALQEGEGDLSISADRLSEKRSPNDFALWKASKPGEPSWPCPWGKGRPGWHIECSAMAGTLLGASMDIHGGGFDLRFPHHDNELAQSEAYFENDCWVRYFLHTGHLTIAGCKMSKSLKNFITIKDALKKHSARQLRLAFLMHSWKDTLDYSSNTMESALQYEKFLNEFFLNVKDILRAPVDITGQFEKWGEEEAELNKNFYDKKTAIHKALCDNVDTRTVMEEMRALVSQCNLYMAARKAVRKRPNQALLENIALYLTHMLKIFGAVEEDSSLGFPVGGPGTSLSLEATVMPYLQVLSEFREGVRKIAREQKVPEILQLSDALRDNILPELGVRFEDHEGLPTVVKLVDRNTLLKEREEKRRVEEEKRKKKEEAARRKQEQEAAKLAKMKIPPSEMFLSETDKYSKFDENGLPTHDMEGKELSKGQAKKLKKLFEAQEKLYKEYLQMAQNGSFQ

T6: His-WRS (UniProt P23381 1-471, limits assumed)
T6 construct: not shown: His tag
T6 sequence (looked up): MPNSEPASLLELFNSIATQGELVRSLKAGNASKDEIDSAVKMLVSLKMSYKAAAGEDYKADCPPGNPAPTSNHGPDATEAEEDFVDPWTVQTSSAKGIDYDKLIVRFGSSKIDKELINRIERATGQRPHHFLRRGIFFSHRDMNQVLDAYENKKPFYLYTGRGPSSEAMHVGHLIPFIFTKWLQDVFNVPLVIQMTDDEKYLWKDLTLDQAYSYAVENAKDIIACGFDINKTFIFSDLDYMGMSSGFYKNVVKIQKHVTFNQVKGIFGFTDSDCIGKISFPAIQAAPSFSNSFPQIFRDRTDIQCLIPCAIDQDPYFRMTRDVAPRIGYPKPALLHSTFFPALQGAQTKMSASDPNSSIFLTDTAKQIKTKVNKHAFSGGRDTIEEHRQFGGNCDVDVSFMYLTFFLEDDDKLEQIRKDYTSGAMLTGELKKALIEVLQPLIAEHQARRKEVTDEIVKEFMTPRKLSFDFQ

T7: AIMP3 (Aminoacyl tRNA synthetase complex-interacting multifunctional protein 3) (Homo sapiens (Human), UniProt O43324 1-174, limits assumed)
T7 construct: also called AIMP3 단백질
T7 sequence: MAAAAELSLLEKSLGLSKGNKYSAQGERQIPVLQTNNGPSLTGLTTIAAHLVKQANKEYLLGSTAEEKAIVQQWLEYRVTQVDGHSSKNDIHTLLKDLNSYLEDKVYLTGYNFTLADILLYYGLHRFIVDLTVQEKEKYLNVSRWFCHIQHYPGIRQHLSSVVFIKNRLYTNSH


Key:
[1] = target: T1, 메티오닐 티알엔에이 합성효소 (methionyl-tRNA …); assay: SPR; MRS+AIMP3 co-purified protein on CM5 chip, antibody flowed at various concentrations
His-AIMP1 = target: T2, His-AIMP1; assay: ELISA; protein coated at 1 μg/ml, OD 450 nm
34S-AIMP2 = target: T3, 34S-AIMP2; assay: ELISA; protein coated at 1 μg/ml, OD 450 nm
His-GRS = target: T4, His-GRS; assay: ELISA; protein coated at 1 μg/ml, OD 450 nm
His-KRS = target: T8, His-KRS (UniProt Q15046 1-597); assay: ELISA; protein coated at 1 μg/ml, OD 450 nm
T8 construct: not shown: His tag
T8 sequence (Q15046 whole entry): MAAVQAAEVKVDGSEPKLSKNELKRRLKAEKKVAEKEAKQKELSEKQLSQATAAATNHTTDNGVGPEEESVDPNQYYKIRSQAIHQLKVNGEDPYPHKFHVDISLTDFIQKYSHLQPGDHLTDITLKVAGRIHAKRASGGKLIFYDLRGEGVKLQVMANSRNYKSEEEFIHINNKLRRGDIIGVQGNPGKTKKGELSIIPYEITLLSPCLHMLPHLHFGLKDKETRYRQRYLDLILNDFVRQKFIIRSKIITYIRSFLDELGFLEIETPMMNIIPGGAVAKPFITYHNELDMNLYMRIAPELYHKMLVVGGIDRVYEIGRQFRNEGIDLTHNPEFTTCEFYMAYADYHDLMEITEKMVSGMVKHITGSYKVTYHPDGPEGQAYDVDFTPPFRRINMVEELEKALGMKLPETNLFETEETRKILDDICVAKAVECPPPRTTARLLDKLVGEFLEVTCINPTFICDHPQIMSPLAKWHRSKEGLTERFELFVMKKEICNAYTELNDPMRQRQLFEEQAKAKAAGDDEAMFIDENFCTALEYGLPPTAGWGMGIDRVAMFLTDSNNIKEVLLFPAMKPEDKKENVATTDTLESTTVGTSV

His-CRS = target: T5, His-CRS; assay: ELISA; protein coated at 1 μg/ml, OD 450 nm
His-WRS = target: T6, His-WRS; assay: ELISA; protein coated at 1 μg/ml, OD 450 nm
[2] = target: T7, AIMP3 (Aminoacyl tRNA synthetase …); assay: SPR; AIMP3 on CM5 chip, antibody flowed at various concentrations

Kd [1] [nM]	binding result (His-AIMP1)	binding result (34S-AIMP2)	binding result (His-GRS)	binding result (His-KRS)	binding result (His-CRS)	binding result (His-WRS)	binding result [2]	Binder
5.42	no binding (tested: 500 ng/ml)	no binding (tested: 500 ng/ml)	no binding (tested: 500 ng/ml)	no binding (tested: 500 ng/ml)	no binding (tested: 500 ng/ml)	no binding (tested: 500 ng/ml)	no binding	1E8 항체 (anti-MRS monoclonal antibody 1E8) (antibody, mouse IgG2a, kappa, V domains shown, Mouse monoclonal from hybridoma 1E8 (immunogen MRS-AIMP3 co-purified protein); also called 1E8 IgG; 1E8 antibody) VH: DVKLQESGPGLVNPSQSLSLTCTVTGYSITSDYAWNWIRQFPGNKLEWMGYISYSGRTSYKSSLKSRISITRDTSKNQFFLELNSVTTEDTATYYCARDYGNFVGYFDVWGAGTTVTVSS VL: DIVMTQSPSSLAVSVGEKVTMSCKSSQSLLYSSNQKNYLAWYQQKPGQSPKLLIYWASTRESGVPDRFTGSGSGTEFTLTISSVKAEDLAVYYCQQYYSYPTFGGGTKLEIKA
1.56	no binding (tested: 500 ng/ml)	no binding (tested: 500 ng/ml)	no binding (tested: 500 ng/ml)	no binding (tested: 500 ng/ml)	no binding (tested: 500 ng/ml)	no binding (tested: 500 ng/ml)	no binding	8A12 항체 (anti-MRS monoclonal antibody 8A12) (antibody, mouse IgG2a, kappa, V domains shown, Mouse monoclonal from hybridoma 8A12 (also named 34-8F2); also called 8A12 IgG; 8A12 antibody) VH: DVKLQESGPGLVKPSQSLSLTCTVTGYSITSEYAWTWIRQFPGNKLEWMGYINYNGNTNLNPSLKSRISIIRDTSKNQFFLQLNSVTTEDTATYYCARSLWPRGWFAYWGQGTLVTVSA VL: DIQMTQSPSSMYASLGERVTITCKASQDINSYLSWFQQKPGKSPKTLMYRANRLVDGVPSRFSGSGSGQDYSLTISSLEYEDMGIYYCLQYDEFPRTFGGGTKLEIKA

Reference: patent KR20190026632A (dated 2019)
